Assay results from patent US12365732 (23ANDME, dated 2025).

Key:
[1] = molecular target: T1, hu-CD96 isoform 2 on CHO cells (human, UniProt P40200 22-585); assay: FACS, Ab 0.0032 nM
T1 construct: also called CHO-CD96 (isoform 2); CD96-CHOs
T1 sequence: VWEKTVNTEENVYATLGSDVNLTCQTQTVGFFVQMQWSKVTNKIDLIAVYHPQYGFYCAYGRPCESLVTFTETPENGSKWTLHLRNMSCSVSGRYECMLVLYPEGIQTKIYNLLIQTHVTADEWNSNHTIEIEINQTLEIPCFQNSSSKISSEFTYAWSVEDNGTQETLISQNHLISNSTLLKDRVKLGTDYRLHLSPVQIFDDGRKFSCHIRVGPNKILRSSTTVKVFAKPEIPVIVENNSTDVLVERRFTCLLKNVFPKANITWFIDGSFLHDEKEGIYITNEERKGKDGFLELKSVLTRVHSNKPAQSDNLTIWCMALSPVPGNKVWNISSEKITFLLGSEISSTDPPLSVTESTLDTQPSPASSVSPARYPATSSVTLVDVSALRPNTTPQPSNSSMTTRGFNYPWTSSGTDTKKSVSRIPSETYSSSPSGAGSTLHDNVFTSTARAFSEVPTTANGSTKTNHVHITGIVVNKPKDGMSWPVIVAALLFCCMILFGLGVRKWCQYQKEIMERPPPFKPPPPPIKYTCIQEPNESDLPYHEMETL
Protocol: Isoform 1 of hu-CD96 (Origene, catalog #RC213845) was transiently expressed in HEK293T cells following standard lipofectamine or Fugene transfection protocol. […] Cells were washed, and binding was detected by incubation with anti-mouse IgG-FITC (Biolegend, catalog #406001) for 20 minutes at 4° C. Cell binding was analyzed by flow cytometry with a CytoFLEX (Beckman Coulter). Binding curves were calculated as a percentage of cells positive for bound antibody.
Isoform 2 of hu-CD96 (DNA construct: Origene, catalog #RC221005) was expressed on a single-cell-clone-derived CHO stable cell line. Binding of the anti-CD96 antibodies to the CHO cells were determined as described above with isoform 1 of hu-CD96.

huCD96D1-Fc = huCD96D1-Fc (human); assay: Octet, antibody on anti-Fc sensors
Chain of huCD96D1-Fc (human) (chain, as listed by the source limits assumed): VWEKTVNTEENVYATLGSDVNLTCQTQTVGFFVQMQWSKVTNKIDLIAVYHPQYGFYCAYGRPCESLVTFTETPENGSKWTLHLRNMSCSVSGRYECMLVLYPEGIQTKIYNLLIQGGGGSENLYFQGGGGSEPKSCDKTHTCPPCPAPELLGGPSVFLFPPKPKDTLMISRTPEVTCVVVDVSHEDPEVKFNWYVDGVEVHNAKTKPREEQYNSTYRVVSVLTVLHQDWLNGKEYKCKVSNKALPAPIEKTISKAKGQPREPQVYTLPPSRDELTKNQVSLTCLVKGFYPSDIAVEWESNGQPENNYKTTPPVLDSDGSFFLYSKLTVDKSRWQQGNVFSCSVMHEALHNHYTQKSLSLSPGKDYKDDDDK
Protocol: Domain Binding Site Mapping mAb1.v7 and h10G1 were determined to bind the D1 domain of CD96. Epitope mapping experiments were performed on an OctetRed96 by capturing the antibodies on anti-Fc Octet sensors (ForteBio) and testing their binding to recombinant huCD96D1-Fc and huCD96D1D3.

[2] = molecular target: T2, hu-CD96 (soluble, isoform 2 extracellular domain) (human, UniProt P40200 22-516, biotinylated in Octet and blocking ELISA); assay: SPR 25C, IgG on Protein A, CD96 analyte
T2 construct: the assays name only hu-CD96; also called hCD96; biotinylated hu-CD96
T2 sequence: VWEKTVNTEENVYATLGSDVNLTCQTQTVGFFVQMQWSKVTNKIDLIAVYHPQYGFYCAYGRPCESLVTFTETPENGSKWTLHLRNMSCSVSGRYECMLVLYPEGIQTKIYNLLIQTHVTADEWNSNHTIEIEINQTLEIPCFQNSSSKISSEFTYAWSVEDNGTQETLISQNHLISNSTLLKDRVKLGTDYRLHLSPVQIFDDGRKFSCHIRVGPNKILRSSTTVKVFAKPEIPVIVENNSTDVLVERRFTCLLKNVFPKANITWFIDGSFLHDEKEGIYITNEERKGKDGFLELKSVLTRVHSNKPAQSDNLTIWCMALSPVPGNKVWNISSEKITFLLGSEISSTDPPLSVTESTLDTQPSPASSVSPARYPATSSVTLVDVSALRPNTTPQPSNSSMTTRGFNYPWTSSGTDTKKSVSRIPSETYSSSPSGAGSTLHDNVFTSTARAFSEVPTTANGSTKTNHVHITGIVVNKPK
Protocol: (§1) SPR measurement with a BIACORE™ 8K instrument was performed to determine the monovalent binding affinity of mAb1.v7 and h10G1 IgG to hu-CD96, cy-CD96, and mo-CD96. Briefly, antibodies were diluted at 0.5 µg/mL in HBS-P buffer (0.01 M HEPES pH 7.4, 0.15 M NaCl, 0.005% Surfactant P20) and applied to the Protein A chip at 30 µL/min flow rate for 60 s in flow cell 2 (FC2). Then 3-fold serial dilutions of hu-CD96, cy-CD96, or mo-CD96 in HBS-P buffer (0.01 M HEPES pH 7.4, 0.15 M NaCl, 0.005% surfactant P20) from (0.4 nM) to high (100 nM) were injected (flow rate: 30 µL/min) at 25° C. to both flow cell 1 (FC1) and flow cell 2 (FC2). The sensorgram was recorded and subject to reference and buffer subtraction before evaluating by BIACORE® 8K Evaluation Software (version 1.1.1.7442). Association rates ($kon$) and dissociation rates ($koff$) were calculated using a simple one-to-one Langmuir binding model.

[3] = molecular target: T3, mo-CD96 (soluble, Table 5) (mouse, UniProt Q3U0X8 22-536, limits assumed); assay: SPR 25C, IgG on Protein A, CD96 analyte
T3 sequence (looked up): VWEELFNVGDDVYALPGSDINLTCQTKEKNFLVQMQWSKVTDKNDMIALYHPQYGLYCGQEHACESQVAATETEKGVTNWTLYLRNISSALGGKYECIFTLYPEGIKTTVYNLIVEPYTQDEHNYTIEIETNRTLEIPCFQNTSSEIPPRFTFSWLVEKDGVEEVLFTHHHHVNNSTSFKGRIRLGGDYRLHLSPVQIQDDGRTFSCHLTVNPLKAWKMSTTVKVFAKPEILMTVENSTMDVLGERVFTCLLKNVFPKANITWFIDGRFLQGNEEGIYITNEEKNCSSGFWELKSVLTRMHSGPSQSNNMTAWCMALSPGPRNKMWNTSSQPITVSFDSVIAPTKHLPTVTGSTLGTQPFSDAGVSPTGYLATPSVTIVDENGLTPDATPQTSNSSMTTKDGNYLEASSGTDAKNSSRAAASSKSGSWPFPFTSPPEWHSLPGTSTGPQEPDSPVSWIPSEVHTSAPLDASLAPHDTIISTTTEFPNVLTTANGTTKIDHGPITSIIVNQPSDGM
Protocol: as §1

B1: 9H4, purified hybridoma antibody (antibody, V domains shown)
VH: EVQLLETGGGLVKSGGSLKLSCAASGFTFSDYYMYWVRQTPEKRLEWVAAISDDGTYTYYPDSVKGRFTISRDNANNYLYLQMSSLKSEDTAIYYCAKAGSYDYFDVWGAGTTVTVSS
VL: DIVLTQSPASLAVSLGQRAIISCKASQSVTFADTGLMHWYQQKPGQQPKLLIYRASNLEVGVPTRFSGSGSGTDFTLNIHPVEEEDVATYYCQQSREYPWTFGGGTKLEIK
notes: murine hybridoma IgG
Question: With B1 as the binder, how does the “% positive” value [1] read?
Answer: 0.3%

B2: 10G1 (clone 10G1.3G8), purified hybridoma antibody (antibody, V domains shown)
VH: QIQLVQSGPELKKPGETVKISCKASGYPFTTYGMSWVKQAPGKGLKWMGWINTDSGVPTYADDFKGRFAFSLETSANTAYLQINSLKNEDAATYFCARNIYYGWGNFDYWGQGTILTVSS
VL: DILMTQSPTTLSVTPGETVSLSCRASQDIYRNLHWYQQKSQGTPRLLIKHASDSISGIPSRFTGSGSGTDFTLSINSVKPEDEGIYYCLQGYSMPYTFGGGTKLEIK
notes: murine hybridoma IgG
Question: B2 was tested. Which “% positive” value [1] did it give?
Answer: 0.1%

B3: 7E5, purified hybridoma antibody (antibody, V domains shown)
VH: QVQLKESGPGLVAPSQSLSIICTVSGFSLTNYGIHWIRQPPGKGLEWLGIIWAGGSTNYNSALMSRLTISKDNSKSQVFLKMNSLQTNDTAIYYCARVSMMGFAYWGQGTLVTVSA
VL: QAVVTQESALTTSPGETVTLTCRSSTGAVTTSNYANWVQEKPDHLFTGLIGGTNNRAPGVPARFSGSLIGDKAALTITGAQTEDEAIYFCSLWYGSHWVFGGGTKLTVL
notes: murine hybridoma IgG
Question: How did the “% positive” value [1] turn out when B3 was run?
Answer: 0.1%

B4: h10G1 IgG (humanized 10G1) (antibody, V domains shown)
VH: EIQLVQSGSELKKPGASVKVSCKASGYPFTTYGMSWVRQAPGQGLEWMGWINTDSGVPTYADDFKGRFVFSLDTSVSTAYLQISSLKAEDTAVYFCARNIYYGWGNFDYWGQGTLVTVSS
VL: EIVMTQSPDFQSVTPKEKVTITCRASQDIYRNLHWYQQKPDQTPKLLIKHASDSISGIPSRFSGSGSGTDFTLTINSLEAEDAAAYYCLQGYSMPYTFGGGTKVEIKG
notes: human IgG1 N297G
Question: Does B4 bind (huCD96D1-Fc)?
Answer: binds

Question: And the “apparent Kd (pooled screen)” value [2]?
Answer: 1.17 nM

Question: Does B4 bind [3]?
Answer: no binding (tested: 100 nM highest)

B5: mAb1.v7 IgG (humanized 12F8) (antibody, V domains shown)
VH: EVQLVQSGAEVKKPGASVKVSCKASGFTFTNNWMHWVRQAPGQGLEWIGMIHPNSGITNINEKFKNRVTMTTDTSTSTAYMELRSLRSEDTAVYYCRSDGTYEGYFDYWGQGTLVTVSS
VL: DIQLTQSPSSLSASVGDRVTITCKASQNVGTAIVWYQQKPGKAPKVLIYSASTRYTGVPSRFSGSGSGTDFTLTISSLQPEDFATYYCQQYSSSPLTFGQGTKVEIKG
notes: human IgG1 N297G
Question: B5 was tested. Which “% positive” value [1] did it give?
Answer: 0.5%

Question: Does B5 bind (huCD96D1-Fc)?
Answer: binds

Question: And the Kd [2]?
Answer: 4.49 nM

Question: And the Kd [3]?
Answer: ~386 nM
